Test results taken from patent US20160297892A1 (Novo Nordisk, published 2016).
Numbering of substitutions follows the chain as printed. One block for each binder: values may come before it.

Experiments:
Test in all cases: ELISA, calcium-free TBS;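 note: binding of mouse antibodies detected by ELISA with an HRP-conjugated goat anti-mouse IgG secondary and TMB substrate development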
[1] = biological target: T1, human Protein S (plasma derived) (human, UniProt P07225 42-676)
T1 construct: Bought plasma-derived human Protein S (Haematologic Technologies or Enzyme Research Laboratories); also called Plasma PS; free Protein S
T1 sequence: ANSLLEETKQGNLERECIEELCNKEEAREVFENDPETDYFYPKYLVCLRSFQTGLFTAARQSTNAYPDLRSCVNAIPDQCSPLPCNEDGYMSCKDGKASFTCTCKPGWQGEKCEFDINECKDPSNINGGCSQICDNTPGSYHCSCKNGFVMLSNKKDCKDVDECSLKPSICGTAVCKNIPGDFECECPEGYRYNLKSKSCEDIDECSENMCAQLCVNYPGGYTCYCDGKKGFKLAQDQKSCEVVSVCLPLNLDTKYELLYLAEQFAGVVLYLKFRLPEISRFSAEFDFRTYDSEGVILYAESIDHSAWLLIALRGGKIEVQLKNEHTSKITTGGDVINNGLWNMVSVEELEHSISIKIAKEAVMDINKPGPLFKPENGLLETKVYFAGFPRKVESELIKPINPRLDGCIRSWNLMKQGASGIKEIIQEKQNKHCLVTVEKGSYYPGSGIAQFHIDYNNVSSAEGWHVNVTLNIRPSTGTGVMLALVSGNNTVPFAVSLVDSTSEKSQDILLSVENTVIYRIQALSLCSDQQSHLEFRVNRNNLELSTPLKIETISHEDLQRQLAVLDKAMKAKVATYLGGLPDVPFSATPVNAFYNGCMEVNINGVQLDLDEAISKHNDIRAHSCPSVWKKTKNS
Description: (§1) After incubation and washing a HRP-labelled goat-anti-mouse IgG secondary antibody (Jackson) was added and the ELISA was developed after incubation and wash by addition of 3,3′,5,5′-Tetramethylbenzidine.

[2] = biological target: T2, Gla-domain deleted recombinant human Protein S (human, UniProt P07225 114-676)
T2 construct: also called hPS-dGla; desGla human Protein S
T2 sequence: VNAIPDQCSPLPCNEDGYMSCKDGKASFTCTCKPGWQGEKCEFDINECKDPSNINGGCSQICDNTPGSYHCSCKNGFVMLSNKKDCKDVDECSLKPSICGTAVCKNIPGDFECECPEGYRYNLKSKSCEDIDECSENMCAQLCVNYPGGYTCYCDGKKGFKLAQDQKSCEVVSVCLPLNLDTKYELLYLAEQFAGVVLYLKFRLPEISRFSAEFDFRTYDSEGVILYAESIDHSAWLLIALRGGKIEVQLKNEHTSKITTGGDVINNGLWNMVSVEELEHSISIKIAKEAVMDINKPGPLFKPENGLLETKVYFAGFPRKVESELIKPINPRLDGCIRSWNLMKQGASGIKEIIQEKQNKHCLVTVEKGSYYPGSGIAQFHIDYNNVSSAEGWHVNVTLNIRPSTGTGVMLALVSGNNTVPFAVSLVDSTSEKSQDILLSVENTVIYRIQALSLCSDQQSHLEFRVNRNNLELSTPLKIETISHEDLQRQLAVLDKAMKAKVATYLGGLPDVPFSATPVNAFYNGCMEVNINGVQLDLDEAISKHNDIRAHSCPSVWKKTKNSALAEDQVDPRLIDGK
Description: as §1

[3] = biological target: T3, EGF1-4 domains of human Protein S with C-terminal HPC4 tag (human, UniProt P07225 114-286, partial hydroxylation of Asn or Asp in the EGF domains (detected by MS))
T3 construct: also called hEGF1-4; human Protein S EGF1-4
T3 sequence: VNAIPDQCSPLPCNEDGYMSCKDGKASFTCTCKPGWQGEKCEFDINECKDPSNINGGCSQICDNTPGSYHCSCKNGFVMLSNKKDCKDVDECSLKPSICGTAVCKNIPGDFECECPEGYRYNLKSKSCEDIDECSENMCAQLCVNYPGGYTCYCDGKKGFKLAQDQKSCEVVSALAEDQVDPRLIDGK
Description: as §1

[4] = biological target: T4, EGF domain 3 and 4 of recombinant human Protein S (human, UniProt P07225 201-286, limits assumed)
T4 construct: domain: EGF domain 3 and 4; also called hEGF3-4
T4 sequence (looked up): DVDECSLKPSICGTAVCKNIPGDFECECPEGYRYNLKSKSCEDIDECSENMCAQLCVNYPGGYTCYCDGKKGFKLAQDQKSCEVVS
Description: as §1

[5] = biological target: T5, EGF domain 1 and 2 of recombinant human Protein S (human, UniProt P07225 114-200, limits assumed)
T5 construct: domain: EGF domain 1 and 2; also called hEGF1-2
T5 sequence (looked up): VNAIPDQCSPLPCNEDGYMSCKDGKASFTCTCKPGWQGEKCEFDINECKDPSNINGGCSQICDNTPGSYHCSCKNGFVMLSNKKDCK
Description: as §1

binding result [1]: binds | binding result [2]: binds | binding result [3]: binds | binding result [4]: no binding | binding result [5]: no binding
B1: M-hProtS-6F153A2 monoclonal antibody (antibody, mouse IgG1, V domains shown)
VH: QIQLVQSGPELKKPGETVKISCKASGYTFSDYSMHWVKQTPGEGLKWMGWMNTGTGEPTYADDFKGRFAFSLETSATTAHLQINNLKNEDTATYFCARRLYYGTGLAYWGQGTLVTVSA
VL: DIVMTQSHKFMSTSVGDRVSITCKASQDVSTGVAWYQQKPGQSPKLLIFSASSRYSGVPDRFTGSGSGTDFTFTISSVQAEDLAVYYCQQHYSSPRTFGGGTKLEIKR
notes: Tested as antibody purified from hybridoma supernatant; mouse IgG1, kappa

binding result [1]: binds | binding result [2]: binds | binding result [3]: binds | binding result [4]: no binding
B2: M-hProtS-2F188A1 monoclonal antibody (antibody, mouse IgG1, V domains shown)
VH: QVQLQQPGAELVRPGTSVKLSCKASGYTVTSYWMNWIKQRPEQGLEWIGRIDPNDSETLYNQKFKDKVILTVDKSSSTVYIQLSSLTSEDSAVYYCARWAGSGYAMDYWGQGTSVTVSS
VL: QIVLTQSPALLSASPGEKVTMTCSASSSVSYMYWYQQKPGSSPKPWIYVTSNLASGVPARFSGSGSGTSYSLTISSMEAEDAATYYCHQWSSDPYTFGGGTKLEIRR
notes: Purified from hybridoma supernatant; mouse IgG1, kappa

binding result [4]: no binding
B3: M-hProtS-6F216A3 (mAb 0914) monoclonal antibody (antibody, V domains shown)
VH: B2 VH with T16A, V29F, M34I, I37V, N54Y, L59H, V68A, V79A, I81M, A100G
VL: B2 VL with T5S, L10I, S24R, V49A, S76R, M77V, H88Q, D93I, Y95P, R106K
notes: Mouse IgG1, kappa

binding result [1]: binds | binding result [2]: binds | binding result [3]: binds | binding result [4]: no binding | binding result [5]: no binding
B4: M-hProtS-3F38A2 monoclonal antibody (antibody, mouse IgG1, V domains shown)
VH: EVLLQQSGPELVKPGASVKIPCKASGYTFTDYNMDWVKQSHGKSLEWIGDINPNNGDTFYNQKFKGKATLTVDKSSSTAYMELRSLTSEDTAVYYCARSEIFTTAPDYGMGYWGQGTSVTVSS
VL: ENVLTQSPAIMSASPGEKVTMTCRASSSVSSSYLHWYQQRSGASPKLWIYGTSNLASGVPARFSGSGSGTSYSLTISSVEAEDAATYYCQQYSGYPRTFGGGTKLEIKR
notes: as for B2

binding result [1]: binds | binding result [2]: binds | binding result [3]: binds | binding result [4]: no binding | binding result [5]: no binding
B5: M-hProtS-3F62A5 monoclonal antibody (antibody, mouse IgG1, V domains shown)
VH: B4 VH with P21T, N52D, D57G, F59I, K63E, K65T, K74T, A97V, M110V, G111D
VL: B4 VL with Q38R, R40K, G51S, S78R, L105V
notes: as for B2

binding result [1]: binds | binding result [2]: binds | binding result [3]: binds | binding result [4]: no binding
B6: M-hProtS-6F151A2 monoclonal antibody (antibody, mouse IgG1, V domains shown)
VH: EVQLQQSGAELVRSGASVKLSCTASGFNIKDNYIHWVKQRPEQGLEWIGWIDPENGDTEYAPKFQGKATMTADTSSNTAYLQLSSLTSEDTAVYYCSAYGAAYWGQGTLVTVSA
VL: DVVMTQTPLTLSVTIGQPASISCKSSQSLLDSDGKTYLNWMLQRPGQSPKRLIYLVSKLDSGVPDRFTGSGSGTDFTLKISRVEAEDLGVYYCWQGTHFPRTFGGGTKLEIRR
notes: as for B2

binding result [1]: binds | binding result [2]: binds | binding result [3]: binds | binding result [4]: no binding
B7: M-hProtS-6F128A2 monoclonal antibody (antibody, mouse IgG1, V domains shown)
VL: SIVMTQTPKFLLVSAGDRVTITCKASQSVSNDVAWYQQKPGQSPKLLIYYASNRYTGVPDRFTGSGYGTDFTFTISTVQAEDLAVYFCQQDYSSPYTFGGGTKLEIKR
V domain: QVQLQQPGAELVRPGASVKLSCKASGYTFTSYWINWVKQRPEQGLEWIGRIDPYDSETHYNQKFKDKAILTVDKSSSTAYMQLSSLTSEDSAVYYCARWGGSGYAMDYWGQGTSATVSS
notes: as for B1

binding result [1]: binds | binding result [2]: binds | binding result [3]: binds | binding result [4]: no binding
B8: M-hProtS-2F382A1 monoclonal antibody (antibody, mouse IgG1, V domains shown)
VH: EVKLEESGGGLVQPGGSMKLSCAASGFTFSDAWMGWVRQSPEKGLEWVAEIRGKANNHATYYSESVKGRFTISRDDSKSSVYLQMNSLRAEDTGIFYCCLITAFLFDYWGQGTTLTVSS
VL: QIVLTQSPAIMSASPGEKVTMTCSGRSSENYMYWYQQKPGSPPRLWIYDTSNLVSGVPARFSGSRSGTSYSLTISSMEAEDAATYYCQQFNGYPYTFGGGTKLEIRR
notes: as for B2

binding result [1]: binds | binding result [2]: binds | binding result [3]: binds | binding result [4]: no binding
B9: M-hProtS-6F206A1 monoclonal antibody (antibody, mouse IgG1, V domains shown)
VH: QVQLQQSGAEMVRPGSSVKISCKASGYAFSSHWMNWVKQRPGQGLEWIGQIYPGDGDTNYNGKFRGKAIVTADTSSSTAYLQLSSLTSEDTAVFFCAPGYHGTSYWFAYWGQGTLVTVSA
VL: DIQMSQSPSSLSASLGDTVTITCHASQNINIWLSWYQQKPGNILTLLIYKASNLYTGVPSRFSGSGSGTDFTLTISSLQPEDIATYYCQQGQSFPLTFGTGTRLELKR
notes: as for B2

binding result [1]: binds | binding result [2]: binds | binding result [3]: binds | binding result [4]: no binding | binding result [5]: no binding
B10: M-hProtS-6F120A1 monoclonal antibody (antibody, mouse IgG1, V domains shown)
VH: EIQLQQSGPELVKPGASVKVSCKASGYSFTDYNMYWVKQSHGKSLEWIGYIDPYNGGTSYNQKFKGKATLTVDKSSSTAFMHLNSLTSEDSAVYYCARERDYWYFDVRGAGTTVTVSS
VL: DIVLTQSPASLAVSLGQRATISCRASKSVSASGYSYMHWYQQKPGQPPKLLIYLASNLESGVPARFSGSGSGTDFTLNIHPVEEEDAATYYCQHSRELPLTFGAGTKLELKR
notes: as for B2

binding result [2]: binds | binding result [3]: binds | binding result [4]: no binding
B11: M-hProtS-6F265A1 monoclonal antibody (antibody, mouse IgG1, V domains shown)
VH: QVQLKESGPGLVAPSQSLSITCTVSGFSLTSYGVHWVRQPPGKGLGWLGVIWAGGRTDYNSALMSRLSISKDNSKSQVFLKMNSLQTDDTAIYYCARDYGNYNYAMDYWGQGISVTVSS
VL: ETTVTQSPASLSMAIGEKVTIRCITSTDIDDDVNWYQQKPGEPPKLLISEGNILRPGVPSRFSSSGYGTDFVFSIENMLSEDVGDYYCLQSDTLPTFGGGTKLEIKR
notes: as for B1

binding result [1]: binds | binding result [2]: binds | binding result [3]: binds | binding result [4]: no binding
B12: M-hProtS-2F380A1 monoclonal antibody (antibody, mouse IgG1, V domains shown)
VH: EVKLEESGGGLVQPGGSMKLSCAASGFTFSDAWMDWVRQSPEKGLEWVAEVRSKADNHATYYAESVKGRFTISRDDSKSAVYLQMNSLRPEDTGIYYCTLTTAFLFDSWGQGTTLTVSS
VL: QIALTQSPAIMSASPGEKVTMTCSVNSSVSYMHWYQQKPGSSPRLWIYDTSNLVSGVPGRFSGSGSGTSYSLTLSSMEAEDAATYYCQQYSGYLYTFGGGTKLEIKR
notes: as for B2
